One test has as its target T1, C5a-K12A.
T1 single chain: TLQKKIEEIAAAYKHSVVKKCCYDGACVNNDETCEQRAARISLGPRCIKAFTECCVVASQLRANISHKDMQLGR
Kind of test: ELISA on the coated C5a protein, antibody titrated, OD410.

The target of another test is T2, C5a-L2A.
T2 single chain: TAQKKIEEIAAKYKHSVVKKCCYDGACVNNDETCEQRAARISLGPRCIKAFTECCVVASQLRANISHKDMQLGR
Described as above.

In the next test the target is T3, C5a-T1A.
T3 single chain: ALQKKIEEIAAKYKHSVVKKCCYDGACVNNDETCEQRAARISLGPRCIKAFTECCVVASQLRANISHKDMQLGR
The test is described as above.

The target of the next test is T4, C5a-K4A.
T4 single chain: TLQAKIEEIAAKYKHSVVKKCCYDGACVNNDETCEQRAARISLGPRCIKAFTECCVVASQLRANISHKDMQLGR
The test is described as above.

The target in a further test is T5, C5a-E7A.
T5 single chain: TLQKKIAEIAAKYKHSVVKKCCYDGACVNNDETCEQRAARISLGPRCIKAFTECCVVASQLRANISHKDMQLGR
The test is described as above.

The target of another test is T6, C5a-K5A.
T6 single chain: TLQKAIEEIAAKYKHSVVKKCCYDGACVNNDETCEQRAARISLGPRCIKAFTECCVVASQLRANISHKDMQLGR
The description is as above.

In the next test the target is T7, C5a-E8A.
T7 single chain: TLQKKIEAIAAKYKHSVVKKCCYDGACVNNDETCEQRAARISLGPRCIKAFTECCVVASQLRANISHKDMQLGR
The test is described as above.

The target in another test is T8, C5a-Q3A.
T8 single chain: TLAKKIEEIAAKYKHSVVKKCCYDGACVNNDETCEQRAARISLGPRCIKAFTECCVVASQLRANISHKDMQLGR
The test is described as above.

Test [1] deals with T9, native full-length human complement component C5 (human, UniProt P01031 19-673; P01031 678-1676).
T9 construct: mature; The native protein has two disulfide-linked chains (alpha and beta) made from one precursor; also called human native C5
As to the kind of experiment: ELISA, plate coated with human native C5, full-length antibody titrated, OD410. (In an ELISA, binding on a coated surface is turned into a signal by an enzyme label.)

The target in a further test is T10, human endogenous C5a (human, UniProt P01031 678-751, limits assumed).
T10 sequence: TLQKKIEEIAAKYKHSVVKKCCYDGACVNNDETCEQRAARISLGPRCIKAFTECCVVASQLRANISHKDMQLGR
As to the kind of experiment: cell-based or functional assay.

Test [2] concerns the target T11, human C5a (source not stated) (human, UniProt P01031 678-751).
T11 construct: C5a as used in the ROS release assay (5 nM) and injected in the mouse chemotaxis model
T11 sequence: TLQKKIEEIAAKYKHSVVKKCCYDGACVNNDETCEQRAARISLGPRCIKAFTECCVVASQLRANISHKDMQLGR
As to the kind of experiment: ELISA on the coated protein, biotinylated Cab42 titrated, SA-HRP, OD410.

In a further test the target is T12, C5a-D69A.
T12 single chain: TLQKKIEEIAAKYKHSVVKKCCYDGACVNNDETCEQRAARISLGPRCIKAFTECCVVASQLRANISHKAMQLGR
As to the kind of experiment: ELISA on the coated C5a protein, antibody titrated, OD410.

In a further test the target is T13, C5a-H67A.
T13 single chain: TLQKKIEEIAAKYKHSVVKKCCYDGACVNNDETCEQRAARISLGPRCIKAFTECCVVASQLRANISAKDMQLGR
Described as above.

A further test concerns the target T14, C5a-L72A.
T14 single chain: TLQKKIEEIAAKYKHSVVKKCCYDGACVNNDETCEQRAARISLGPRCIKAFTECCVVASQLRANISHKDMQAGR
The description is as above.

The next test has as its target T15, C5a-S66R.
T15 single chain: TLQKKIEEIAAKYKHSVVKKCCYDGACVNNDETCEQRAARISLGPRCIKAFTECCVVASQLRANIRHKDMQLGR
The description is as above.

In a further test the target is T16, C5a-A63R.
T16 single chain: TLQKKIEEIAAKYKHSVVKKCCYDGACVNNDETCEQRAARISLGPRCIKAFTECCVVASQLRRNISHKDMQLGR
The description is as above.

For the next test, the target named is T17, C5a-K68A.
T17 single chain: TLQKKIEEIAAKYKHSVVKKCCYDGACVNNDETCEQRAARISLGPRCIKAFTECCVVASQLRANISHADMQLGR
The description is as above.

For another test, the target named is T18, C5a-M70A.
T18 single chain: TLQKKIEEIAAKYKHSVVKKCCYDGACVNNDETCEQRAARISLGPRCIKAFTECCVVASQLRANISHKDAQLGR
The description is as above.

In the next test the target is T19, C5a-S66A.
T19 single chain: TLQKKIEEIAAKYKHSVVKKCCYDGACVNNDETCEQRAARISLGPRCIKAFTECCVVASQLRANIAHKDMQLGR
The test is described as above.

The target of the next test is T20, C5a-Q71A.
T20 single chain: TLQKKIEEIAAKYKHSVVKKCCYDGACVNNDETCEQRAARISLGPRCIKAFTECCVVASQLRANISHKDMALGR
The test is described as above.

Test [3] addresses T11, human C5a (source not stated). Kind of test: cell-based or functional assay.

Here are results for one molecule from patent US20230257454A1 (STAIDSON BEIJING BIOPHARMACEUTICALS, published 2023).

T9 sequence (P01031 19-673 limits assumed, one chain of several): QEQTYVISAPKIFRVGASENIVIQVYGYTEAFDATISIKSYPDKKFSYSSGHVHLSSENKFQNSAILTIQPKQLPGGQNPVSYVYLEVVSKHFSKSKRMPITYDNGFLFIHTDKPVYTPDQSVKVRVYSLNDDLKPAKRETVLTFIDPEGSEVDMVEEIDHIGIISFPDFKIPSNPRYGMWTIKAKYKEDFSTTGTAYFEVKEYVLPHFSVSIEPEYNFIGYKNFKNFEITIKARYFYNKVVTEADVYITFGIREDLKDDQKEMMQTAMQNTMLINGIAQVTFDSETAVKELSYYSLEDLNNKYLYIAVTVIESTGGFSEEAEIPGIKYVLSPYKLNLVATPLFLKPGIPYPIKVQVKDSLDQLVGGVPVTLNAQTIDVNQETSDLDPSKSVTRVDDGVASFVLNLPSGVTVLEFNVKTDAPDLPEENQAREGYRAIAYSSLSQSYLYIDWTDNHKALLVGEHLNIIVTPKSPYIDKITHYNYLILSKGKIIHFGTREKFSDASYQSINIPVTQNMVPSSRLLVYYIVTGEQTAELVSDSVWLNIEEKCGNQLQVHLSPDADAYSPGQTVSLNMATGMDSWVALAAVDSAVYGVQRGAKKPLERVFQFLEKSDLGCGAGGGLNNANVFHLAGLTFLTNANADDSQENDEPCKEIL

B1: Cab42-IgG1 (antibody, V domains shown)
VH: EMQLVESGGGLVQPGGSLRLSCAASGFTFSDYYMQWVRQAPGKGPEWVGLIRNKAVGETTQYAASVKGRFTISRDDSKNSVYLQMNSLKTEDTAVYYCVSRAGPPGLSWGQGVLVTVSS
VL: DIVMTQSPLSLPVTPGEPASISCRSSQSLLASDAYNYIDWYLQKPGQSPQLLIYGGSNRASGVPDRFSGSGSGTDFTLKISRVEAEDVGVYFCLQHRALPPTFGQGTKLEIK
notes: Full-length human IgG1; It was biotinylated in the peptide-Fc ELISA
For B1, the binding result with C5a-K12A, with C5a-L2A, in the test with C5a-T1A, in the test with C5a-K4A, with C5a-E7A and with C5a-K5A was “binds” in each case. In addition, the binding result with C5a-E8A, in the test with C5a-Q3A, in the test with C5a-D69A, in the test with C5a-H67A, with C5a-L72A and with C5a-S66R was “binds” in each case. Further, the binding result with C5a-A63R, with C5a-K68A, with C5a-M70A, in the test with C5a-S66A and with C5a-Q71A was “binds” throughout. In addition, the “EC50 (read off the curve)” value in test [1] was roughly 10 ng/mL; in test [2] it was roughly 30 ng/w. In addition, in the test with human endogenous C5a, the “eC5a IC50(nM), CD11b up-regulation on human neutrophils in whole blood” value was found to be 2.05 nM. Moreover, the “eC5a+50*C5 IC50(nM), CD11b up-regulation on human neutrophils in whole blood with 50 times more C5” value with human endogenous C5a was 31 nM. The “ROS IC50” value in [3] amounted to 0.78 nM.
